T1: recombinant mouse MAdCAM (mouse, UniProt Q61826 22-365)
T1 sequence (looked up): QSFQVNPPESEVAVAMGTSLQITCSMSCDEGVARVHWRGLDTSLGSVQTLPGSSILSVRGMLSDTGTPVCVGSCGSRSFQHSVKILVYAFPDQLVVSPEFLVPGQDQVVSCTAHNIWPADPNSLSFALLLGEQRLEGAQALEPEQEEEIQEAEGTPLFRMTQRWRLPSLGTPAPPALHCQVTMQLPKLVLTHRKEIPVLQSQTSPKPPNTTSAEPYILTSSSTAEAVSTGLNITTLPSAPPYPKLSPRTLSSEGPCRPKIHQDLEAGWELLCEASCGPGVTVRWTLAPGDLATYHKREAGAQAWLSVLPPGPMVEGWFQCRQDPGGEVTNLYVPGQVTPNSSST

T2: human MAdCAM (full length) (human, UniProt Q13477 19-382)
T2 sequence (looked up): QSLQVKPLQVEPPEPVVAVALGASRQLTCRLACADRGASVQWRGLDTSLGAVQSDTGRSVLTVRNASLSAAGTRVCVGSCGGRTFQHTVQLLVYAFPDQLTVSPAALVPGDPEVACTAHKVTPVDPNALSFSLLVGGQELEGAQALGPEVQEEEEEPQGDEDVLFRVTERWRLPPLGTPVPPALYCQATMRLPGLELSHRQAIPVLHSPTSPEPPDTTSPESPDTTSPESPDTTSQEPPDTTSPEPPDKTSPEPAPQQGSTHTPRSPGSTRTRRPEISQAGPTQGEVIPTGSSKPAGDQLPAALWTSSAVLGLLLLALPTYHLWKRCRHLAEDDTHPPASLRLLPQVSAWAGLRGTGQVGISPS

T3: chimeric cynomolgus/human MAdCAM (cynomolgus; human, UniProt Q13477 226-382, limits assumed)
T3 sequence: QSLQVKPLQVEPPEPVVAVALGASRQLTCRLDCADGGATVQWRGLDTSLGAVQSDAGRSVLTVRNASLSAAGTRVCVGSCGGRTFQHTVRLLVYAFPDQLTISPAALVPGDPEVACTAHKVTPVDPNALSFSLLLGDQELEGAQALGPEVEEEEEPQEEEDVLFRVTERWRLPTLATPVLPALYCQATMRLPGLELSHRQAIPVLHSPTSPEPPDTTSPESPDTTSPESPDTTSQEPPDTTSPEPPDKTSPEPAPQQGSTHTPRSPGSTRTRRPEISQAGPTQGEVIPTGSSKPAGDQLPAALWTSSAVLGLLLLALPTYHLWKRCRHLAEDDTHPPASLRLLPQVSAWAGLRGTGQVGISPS


Assays:
recombinant mouse MAdCAM = biological target: T1, recombinant mouse MAdCAM; experiment: ELISA
[1] = biological target: MAdCAM-IgG1 Fc fusion protein (human); experiment: cell-based or functional assay
[2] = biological target: T2, human MAdCAM (full length); experiment: cell-based or functional assay
[3] = biological target: T3, chimeric cynomolgus/human MAdCAM; experiment: cell-based or functional assay
[4] = biological target: MAdCAM-IgG1 Fc fusion protein (human); experiment: cell-based or functional assay; remark: listed apart in the source
[5] = biological target: T4, MAdCAM-IgG1 Fc fusion protein (human); experiment: SPR BIAcore protocol 1: mAb captured, MAdCAM-IgG1 Fc injected
T4 construct: Made in CHO-DHFR cells; also called MAdCAM-IgFc
Procedure: To perform kinetic analyses, a high density mouse anti-human (IgG₂ and IgG₄) antibody surface over a CMS BIAcore sensor chip was prepared using routine amine coupling. Hybridoma supernatants were diluted 10, 5, 2-fold in HBS-P (10 mM HEPES pH 7.4, 150 mM NaCl, 0.005% Surfactant P20) running buffer containing 100 μg/mL BSA and 10 mg/mL carboxymethyldextran or used neat. Each mAb was captured onto a separate surface using a […] contact time and a 5 mM wash for stabilization of the mAb baseline. MAdCAM-IgG₁ Fc (141 nM) fusion protein was then injected at over all surfaces for one minute, followed by a 3 mM dissociation. The data were normalized for the amount of antibody captured on each surface and evaluated with global fit Langmuir 1:1, using baseline drift models available on the BIAevaluation software provided by BIAcore.

[6] = biological target: T4, MAdCAM-IgG1 Fc fusion protein; experiment: SPR BIAcore protocol 2: mAb amine-coupled, MAdCAM-IgG1 Fc injected
Procedure: Affinity-purified mAb were immobilized onto the dextran layer of a CMS biosensor chip using amine coupling. […] Samples of MAdCAM-IgG₁ Fc fusion protein in running buffer were prepared at concentrations ranging from 0.2-55 nM (a 0 nM solution comprising running buffer alone was included as a zero reference). Samples were randomized and injected in duplicate for 3 mM each across 4 flow cells using HBS-EP (10 mM HEPES pH 7.4, 150 mM NaCl, 3 mM EDTA, 0.005% Surfactant P20) as running buffer. A flow rate of 100 μL/min was used to minimize mass transport limitations. Dissociation of MAdCAM-IgG₁ Fc fusion protein was monitored for 180 mins, the surface regenerated by a 6 sec injection of 25 mM H₃PO₄ (50 μL/min), or 10 mM (6.22.2), 20 mM (6.67.1, 6.73.2, 6.77.1) to 25 mM (6.34.2) and 45 mM NaOH (6.14.2) and the data analysed using the BIAevaluation (v3.1) software package.

Binder | binding result (recombinant mouse MAdCAM) | Mean IC50, JY cell adhesion to MAdCAM IgG1 Fc fusion [1] [µg/mL] | Mean IC50, JY cell adhesion, MAdCAM FlpIn CHO Assay [2] [µg/mL] | Functional IC50, cynomolgus/human MAdCAM-CHO/JY adhesion assay [3] [µg/mL] | MAdCAM IgG1 Fc fusion Assay Mean IC50 (Parent) [4] [µg/mL] | Kd [5] [nM] | koff [5] [s⁻¹] | kon [5] [M⁻¹ s⁻¹] | Kd [6] [nM] | koff [6] [s⁻¹] | kon [6] [M⁻¹ s⁻¹]
anti-MAdCAM monoclonal antibody 6.67.1 (antibody, human IgG4, kappa, V domains shown, human IgG4 kappa from hybridoma 6.67.1) VH: QVQLQESGPGLVKPSETLSLTCTVSGDSISSNYWSWIRQPAGKGLEWIGRIYTSGGTNSNPSLRGRVTILADTSKNQFSLKLSSVTAADTAVYYCARDRITIIRGLIPSFFDYWGQGTLVTVSS VL: not shown | no binding | 0.013 | 0.298 | 0.75 | 0.013 | ≤ 0.017 | ≤ 1e-05 | 590000 | < 0.02 | < 5e-06 | 240000
anti-MAdCAM monoclonal antibody 6.22.2 (antibody, human IgG4, kappa, V domains shown, human IgG4 kappa from hybridoma 6.22.2) VH: QVQLVESGGGVVQPGRSLRLSCAASGHTFSSDGMHWVRQAPGKGLEWVAIIWYDGSNKYYADSVKGRFTISRDNSKNTLYLQMNSLRAEDTAVYYCARDPGYYYGMDVWGQGTTVTVSS VL: EIVLTQSPDFQSVTPKEKVTITCRASQRIGSSLHWYQQKPDQSPKLLIKYASQSFSGVPSRFSGSGSGTNFTLTINGLEAEDAATYYCHQSGRLPLTFGGGTKVEIKR | no binding | 0.018 | 0.573 | 0.83 | 0.018 | 0.0093 | 1.4e-05 | 1.5e+06 | 0.0038 | 8.7e-07 | 230000
anti-MAdCAM monoclonal antibody 6.34.2 (antibody, human IgG4, kappa, V domains shown, human IgG4 kappa from hybridoma 6.34.2) VH: QVQLVESGGGVVQPGRSLRLSCAASGFTFSSYGMHWVRQAPGKGLEWVAVISNDGNNKYYADSVKGRFTISRDNSKNTLYLQMNSLSAEDTAVYYCARDSTAITYYYYGMDVWGQGTTVTVSS VL: DIQMTQSPSSLSASVGDRVTITCRASQNISSYLNWFQQKPGKAPKLLIYAASGLKRGVPSRFSGSGSGTDFTLTIRTLQPDDFATYSCHQSYSLPFTFGPGTKVDIKR | no binding | 0.013 | 0.285 | 0.47 | 0.013 | 0.0158 | 1.9e-05 | 1.2e+06 | < 0.015 | < 5e-06 | 330000
anti-MAdCAM monoclonal antibody 7.20.5 (antibody, human IgG2, kappa, V domains shown, human IgG2 kappa from hybridoma 7.20.5) VH: QVQLQESGPGLVKPSETLSLTCTVSGSSISSYHWNWIRQPAGKGLEWIGRIYTSGSTNYNPSLKSRVTMSLDTSKNQFSLKLSSVTAADTAVYYCAREGVRYYYASGSYYYGLDVWGQGTTVTVSS VL: not shown | no binding | 0.025 | 0.387 | 0.62 | – | 0.0422 | 1.9e-05 | 450000 | 0.075 | 1.2e-05 | 160000
anti-MAdCAM monoclonal antibody 7.26.4 (antibody, human IgG2, kappa, V domains shown, human IgG2 kappa from hybridoma 7.26.4) VH: QVQLVQSGAEVKKPGASVKVSCEASGYTFTSYGIDWVRQAPGQGLEWMGWISVYSGNTNYAQKLQGRVTMSTDTSTSTAYMELRSLRSDDTAVYYCAREGSSSSGDYYYGMDVWGQGTTVTVSS VL: DIVMTQTPLSLSVTPGQPASISCKSNQSLLYSDGKTYLFWYLQKPGQPPQLLIYEVSNRFSGVPDRFSGSGSGTDFTLKISRVEAEDVGVYYCMQSIQLPWTFGQGTKVEIKR | no binding | 0.021 | 0.574 | 0.96 | 0.021 | 0.271 | 0.00026 | 960000 | 0.08 | 1.2e-05 | 150000

— patent publication US20190300605A1 (Pfizer, published 2019)
